According to US11207423B2, “Nanocarriers having surface conjugated peptides and uses thereof for sustained local release of drugs” (Northwestern University, priority 2016, dated 2021):
Ends that are not written are not given here.

Legend:
[1] = Rabbit eye clearance of Cy7-tagged nanoparticles by in vivo imaging (IVIS)
Procedure: FIG. 8. Slowed rabbit eye clearance in vivo with Cy7-tagged 3R-peptide CDEX conjugate. 20 μl of anchor peptide amino-PEG8-RRYRL-amide (SEQ ID NO:5) conjugate to CDEX (2.5 mg/ml) along with conjugated 0.05 moles/particle Cy7-amine was injected into rabbit eyes on day one. Left eye 14 peptides/particle, right eye 21 peptides/particle.
FIG. 10. In vivo charge and zeta potential-dependent loss of NP from rabbit vitreous expressed as a percentage of the first measured photon flux at day 10 post-injection (taken as day 0). Volume of injection: 25 μl; nanocarrier concentration: 3 mg/ml. [Control: CDEX70-0: (n=2). CDEX70-2R; 64 peptides per particle by BCA (n=3) and CDEX70-3R; 61 peptides per particle by BCA (n=3)]. Half-lives: CDEX-0: 4 days; CDEX-2R: 7 days; CDEX70-3R: 13 days. 2R and 3R peptides are respectively (SEQ ID NO:4) and (SEQ ID NO:5) linked as carbamates of 3pyrrolidineCO-amido-PEG8-CO-peptide to Cy7-CDEX70. Cy7 amine is carbamate-linked at <1 mole/mole NP.
Thus BCA protein analysis of increasing peptide, with time in filtrate after 30 kDa filtration of a loaded carrier sample in buffer estimates the half-life for peptide release in buffer. For confirmation in actual vitreous humor (e.g., rabbit) at time points post injection LC-MS estimation of the peptide in vitreous extract follows precipitation of excess HA after adding 3 volumes of ethanol. […] Free intravitreal peptide is assayed after centrifugation via 30 kDa MWCO spin filter.
Retention of the NP in vitreous was tested in vivo in rabbits. 25 μl of CDEX70-2R-Cy7 (SEQ ID NO:4) 3 mg/ml or CDEX70-3R-Cy7 (SEQ ID NO:5) 3 mg/ml was administered by intravitreal injection and imaged via an IVIS scan after 4 weeks and nine weeks. Left: 4-week experiment. (See FIG. 9). The in vivo diffusion dependent loss of NP from rabbit vitreous expressed as percentage of the first measurement at day 10 post-injection (taken as day 0) is provided in FIG. 10. The determined half-lives of the NP is as follows: CDEX-0-Cy7: 4 days; CDEX-2R-Cy7: 7 days; CDEX70-3R-Cy7: 13 days. In vivo diffusion-dependent loss of NP from rabbit vitreous expressed as Flux of the first measurement at day 10 post-injection (taken as day 0) of CDEX70-2R-Cy7 at 4 different concentrations [Control: 0 mg/ml (n=6). 3 mg/ml (n=3).

[2] = Zeta potential measurement (electrophoretic light scattering); assay type: physicochemical
Procedure: (§1) Sample characteristics (particle size, polydispersity and zeta-potential) were measured by a dynamic light scattering method using Malvern Zeta Sizer Nano-S90 instrument according to the manufacturer recommendations. Briefly, hydrodynamic diameter (dh) and polydispersity index (PDI) of nanogel/microgels were obtained for 1 mg/mL aqueous solutions at 25° C. in triplicates after sonication for 30 min and centrifugation at 12,000 rpm. Zeta-potential of the samples was measured for the same solutions in standard 1 cm-cuvettesusing zeta-potential option in the company's software. Average of five measurements±SD was registered.
(§2) Peptide concentration was estimated by BCA (Pierce) protein assay against a standard curve of free peptide. Zeta potential and size was measured on non-rhodamine product using electrophoretic light scattering and dynamic light scattering, respectively (Zetasizer, Malvern). The Z averaged particle size is 15 nm and the full width at half maximum of the distribution peak is 24 nm. Zeta potentials for 1-Arg, 2-Arg, 3-Arg and 4-Arg peptide conjugates were 0.07 mV, 2.2 mV, 4.6 mV and 9.2 mV respectively (Table 2).

[3] = Particle size measurement (dynamic light scattering); assay type: physicochemical
Procedure: as §1, §2

[4] = human vitreous; cited from earlier work
[5] = tested on: laser-induced choroidal neovascularization (CNV); conditions: single intravitreal injection of 1-ul 4 mg/ml 2 days before laser wounding; angiogenesis markers 14 days later
Procedure: FIG. 12B. […] A single injection of 1-ul 4 mg/ml peptide (SEQ ID NO:6) or control is injected into mouse vitreous 2 days before laser wounding of the retina. Angiogenesis markers are detected by antibody stain, 14 days later.

CDEX-3R-Cy7: Cy7-CDEX70 carbamate-linked to 3-pyrrolidine-CONH-PEG(8)-CO-Arg-Arg-Tyr-Arg-Leu-NH2 (SEQ ID NO:5) (RRYRL-NH2; not fully specified (N-terminus); printed as 3-pyrrolidine-CONH-PEG(8)-CO-Arg-Arg-Tyr-Arg-Leu-NH2; also: carbamate-linked to Cy7-CDEX70 nanocarrier)
half-life of NP in rabbit vitreous ([1]; intravitreal 25 μl, 3 mg/ml, photon flux relative to day 10 post-injection (taken as day 0)): 13 days
retention in eye compared with 2R peptide conjugate at similar peptide loading ([1]; rabbit, IVIS scans after 4 and 9 weeks): retained longer in the eye
Zeta potential [2]: 6.34 ± 1.28 mV
Particle size [3]: 81.69 ± 7.44 nm

CDEX-AP3: CDI-activated CDEX nanogel carbamate-linked to AP3, amino-PEG(12)-CO-Arg-Arg-Ser-Arg-amide (SEQ ID NO:19) (RRSR-NH2; not fully specified (N-terminus); printed as amino-PEG(12)-CO-Arg-Arg-Ser-Arg-amide; also: carbamate-linked to CDI-activated CDEX nanogel)
Zeta potential [2]: 4.58 mV
Particle size [3]: 124 ± 1.4 nm

Cy7-tagged 3R-peptide CDEX conjugate: Anchor peptide amino-PEG8-RRYRL-amide (SEQ ID NO:5) conjugated to CDEX with 0.05 moles/particle Cy7-amine; 14 or 21 peptides/particle (RRYRL-NH2; not fully specified (N-terminus); printed as amino-PEG8-RRYRL-amide; also: Cy7-amine on CDEX particle)
fluorescence lost ([1]; rabbit left eye, 14 peptides/particle, 20 μl of 2.5 mg/ml): > 90%
residence in eye ([1]; rabbit right eye, 21 peptides/particle, 20 μl of 2.5 mg/ml): longer residence of conjugate in eye

Ranibizumab: a VEGF inhibitor for treatment of advanced AMD
half-life in vitreous [4]: approximately 9 days

adipic-Sar-Tyr-Asn-Leu-Tyr-Arg-Val-Arg-Ser-NH2 [SEQ ID NO:6]
retinal protective activity [5]: reduction of laser-induced choroidal neovascularization (CNV)
